Test results from patent US20210002644, “ANTI-CHYMASE APTAMER AND USE FOR SAME” (RIBOMIC INC., published 2021).

T1: chymase (native, human skin mast cell) (Homo sapiens, UniProt P23946 P23946:22-247)
T1 sequence: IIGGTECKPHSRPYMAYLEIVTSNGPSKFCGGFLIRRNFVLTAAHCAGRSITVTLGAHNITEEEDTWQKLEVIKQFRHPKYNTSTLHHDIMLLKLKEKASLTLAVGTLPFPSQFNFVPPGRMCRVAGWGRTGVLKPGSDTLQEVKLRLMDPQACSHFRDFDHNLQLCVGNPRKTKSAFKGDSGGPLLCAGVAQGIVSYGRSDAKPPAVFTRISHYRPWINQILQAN

B1: SEQ ID NO: 17(20) (mixed)
RNA: GAUGAUCGGACAUAACAUUGUUGGGGUGUCAA
modifications: idT-G(M)A(M)U(F)G(M)A(M)U(F)C(F)G(M)G(M)A(M)C(F)A(M)U(F)AAsC(F)A(M)TTG(M)U(F)U(F)G(M)GG(M)G(M)TG(M)TCA(M)A(M)-idT (F=2'-F, M=2'-OMe, s=PS)
B2: SEQ ID NO: 17(12) (mixed)
RNA: B1 RNA
modifications: X-S-G(M)A(M)U(F)G(M)A(M)U(F)C(F)G(M)G(M)A(M)C(F)A(M)U(F)AAC(F)A(M)TTG(M)U(F)U(F)G(M)GG(M)G(M)TG(M)TCA(M)A(M)-idT (F=2'-F, M=2'-OMe; X=Phe-Cys peptide, S=thiol)
B3: SEQ ID NO: 17(21) (mixed)
RNA: B1 RNA
modifications: idT-G(M)A(M)U(F)G(M)A(M)U(F)C(F)G(M)G(M)A(M)C(F)A(M)U(F)AAC(F)A(M)TTG(M)U(F)U(F)G(M)GsG(M)G(M)TG(M)TCA(M)A(M)-idT (F=2'-F, M=2'-OMe, s=PS)
B4: SEQ ID NO: 17(13) (mixed)
RNA: B1 RNA
modifications: Y-S-G(M)A(M)U(F)G(M)A(M)U(F)C(F)G(M)G(M)A(M)C(F)A(M)U(F)AAC(F)A(M)TTG(M)U(F)U(F)G(M)GG(M)G(M)TG(M)TCA(M)A(M)-idT (F=2'-F, M=2'-OMe; Y=Cys-Phe peptide, S=thiol)
B5: SEQ ID NO: 17(16) (mixed)
RNA: B1 RNA
modifications: idT-G(M)A(M)U(F)G(M)A(M)U(F)C(F)G(M)G(M)A(M)C(F)A(M)U(F)AAC(F)A(M)TTG(M)U(F)U(F)G(M)GG(M)G(M)TG(M)TCA(PHE)A(M)-idT (F=2'-F, M=2'-OMe, PHE=8-(propyl)phenyl-rA)
B6: SEQ ID NO: 17(6) (mixed)
RNA: B1 RNA
modifications: idT-G(M)A(M)U(F)G(M)A(M)U(F)C(F)G(M)G(M)A(M)C(F)A(M)U(F)AAC(F)A(M)TTG(M)U(F)U(F)G(M)GG(M)G(M)TG(M)TCA(M)A(M)-idT (F=2'-F, M=2'-OMe)
B7: SEQ ID NO: 17(11) (mixed)
RNA: B1 RNA
modifications: idT-G(M)A(M)U(F)G(M)A(M)U(F)C(F)G(M)G(M)A(M)C(F)A(M)U(F)AAC(F)A(M)TTG(M)U(F)U(M)G(M)GG(M)G(M)TG(M)TCA(M)A(M)-idT (F=2'-F, M=2'-OMe)
B8: SEQ ID NO: 17(8) (mixed)
RNA: B1 RNA
modifications: idT-G(M)A(M)U(F)G(M)A(M)U(F)C(F)G(M)G(M)A(M)C(F)A(M)U(M)AAC(F)A(M)TTG(M)U(F)U(F)G(M)GG(M)G(M)TG(M)TCA(M)A(M)-idT (F=2'-F, M=2'-OMe)
B9: SEQ ID NO: 17(17) (mixed)
RNA: B1 RNA
modifications: idT-G(M)A(M)U(F)G(M)A(M)U(F)C(F)G(M)G(M)A(M)C(F)A(M)U(F)AAC(F)A(M)TTG(M)U(F)U(F)G(M)GG(M)G(M)TG(M)TCA(M)A(PHE)-idT (F=2'-F, M=2'-OMe, PHE=8-(propyl)phenyl-rA)
B10: SEQ ID NO: 17(18) (mixed)
RNA: B1 RNA
modifications: idT-G(M)A(M)U(F)G(M)A(M)U(F)C(F)G(M)G(M)A(M)C(F)A(M)U(F)sAAC(F)A(M)TTG(M)U(F)U(F)G(M)GG(M)G(M)TG(M)TCA(M)A(M)-idT (F=2'-F, M=2'-OMe, s=PS)
B11: SEQ ID NO: 17(7) (mixed)
RNA: B1 RNA
modifications: idT-G(M)A(M)TG(M)A(M)U(F)C(F)G(M)G(M)A(M)CA(M)U(F)AAC(F)A(M)TTG(M)U(F)U(F)G(M)GG(M)G(M)TG(M)TCA(M)A(M)-idT (F=2'-F, M=2'-OMe; printed LT(F) read as U(F))
B12: SEQ ID NO: 17(23) (ssRNA)
RNA: B1 RNA
modifications: idT-G(M)A(PHE)U(F)G(M)A(M)U(F)C(F)G(M)G(M)A(M)C(F)A(M)U(F)AAC(F)AU(F)U(F)G(M)U(F)U(F)G(M)GG(M)G(M)U(F)G(M)U(F)C(F)A(M)A(M)-idT (F=2'-F, M=2'-OMe, PHE=8-(propyl)phenyl-rA)
B13: SEQ ID NO: 17(2) (ssRNA)
RNA: B1 RNA
modifications: idT-G(M)A(M)U(F)G(M)A(M)U(F)C(F)G(M)G(M)A(M)C(F)A(M)U(F)AAC(F)AU(F)U(F)G(M)U(F)U(F)G(M)GG(M)G(M)U(F)G(M)U(F)C(F)A(M)A(M)-idT (F=2'-F, M=2'-OMe)
B14: SEQ ID NO: 17(10) (mixed)
RNA: B1 RNA
modifications: idT-G(M)A(M)U(F)G(M)A(M)U(F)C(F)G(M)G(M)A(M)C(F)A(M)U(F)AAC(F)A(M)TTG(M)U(M)U(F)G(M)GG(M)G(M)TG(M)TCA(M)A(M)-idT (F=2'-F, M=2'-OMe)
B15: SEQ ID NO: 17(14) (mixed)
RNA: B1 RNA
modifications: idT-G(M)A(M)U(F)G(M)A(M)U(F)C(F)G(M)G(M)A(M)C(F)A(M)U(F)AAC(F)A(M)TTG(M)U(F)U(F)G(M)GG(M)G(M)TG(M)TCA(M)A(M)-S-Y (F=2'-F, M=2'-OMe; Y=Cys-Phe peptide, S=thiol)
B16: SEQ ID NO: 17(5) (mixed)
RNA: B1 RNA
modifications: idT-G(M)A(M)U(F)G(M)A(M)U(F)C(F)G(M)G(M)A(M)C(F)A(M)U(F)AAC(F)ATTG(M)U(F)U(F)G(M)GG(M)G(M)TG(M)TCA(M)A(M)-idT (F=2'-F, M=2'-OMe)
B17: SEQ ID NO: 17(9) (mixed)
RNA: B1 RNA
modifications: idT-G(M)A(M)U(F)G(M)A(M)U(F)C(F)G(M)G(M)A(M)C(F)A(M)U(F)AAC(M)A(M)TTG(M)U(F)U(F)G(M)GG(M)G(M)TG(M)TCA(M)A(M)-idT (F=2'-F, M=2'-OMe)
B18: SEQ ID NO: 17(15) (mixed)
RNA: B1 RNA
modifications: idT-G(M)A(PHE)U(F)G(M)A(M)U(F)C(F)G(M)G(M)A(M)C(F)A(M)U(F)AAC(F)A(M)TTG(M)U(F)U(F)G(M)GG(M)G(M)TG(M)TCA(M)A(M)-idT (F=2'-F, M=2'-OMe, PHE=8-(propyl)phenyl-rA)
B19: SEQ ID NO: 17(4) (mixed)
RNA: B1 RNA
modifications: idT-G(M)A(M)U(F)G(M)A(M)U(F)C(F)G(M)G(M)A(M)C(F)A(M)U(F)AAC(F)ATTG(M)U(F)U(F)G(M)GG(M)G(M)U(F)G(M)U(F)C(F)A(M)A(M)-idT (F=2'-F, M=2'-OMe)
B20: SEQ ID NO: 17(19) (mixed)
RNA: B1 RNA
modifications: idT-G(M)A(M)U(F)G(M)A(M)U(F)C(F)G(M)G(M)A(M)C(F)A(M)U(F)AsAC(F)A(M)TTG(M)U(F)U(F)G(M)GG(M)G(M)TG(M)TCA(M)A(M)-idT (F=2'-F, M=2'-OMe, s=PS)

The binders below were run against T1, chymase (native, human skin mast cell) (assay: inhibition; angiotensin I substrate). Conditions: tags: Calbiochem Human Skin.
Description: (§1) The total volume of solution for an enzyme reaction in the assay was set to 50 μL, and the reaction was performed in solution C buffer. At first, native (manufactured by Calbiochem) was diluted with solution C to give 5 μL thereof. Here, the native is chymase purified from human skin mast cell. The nucleic acid was serially diluted with solution C at a concentration of 0.0027-2 μM to give 25 μL thereof. The chymase solution (5 μL) and the nucleic acid solution (25 μL) were mixed, and the mixture was incubated at 37° C. for 5 min. On the other hand, […] angiotensin I (manufactured by PEPTIDE […], INC.) was prepared in solution C to give 20 μL thereof, which was incubated at 37° C. for 5 min. The angiotensin I solution was added to a mixture of chymase and nucleic acid to start an enzyme reaction. The final chymase concentration of the reaction solution was 0.5 nM, and the final substrate concentration was 50 μM. After reaction at 37° C. for 90 min, ice-cooled 30% trichloroacetic acid solution (25 μL) was added to quench the reaction. The whole mixture was centrifuged at 4° C., 14000 rpm for 10 min, and the supernatant (30 μL) was used for the next fluorescence induction reaction.
(§2) The above-mentioned supernatant (30 μL) was added to a 96 well plate (black, manufactured by Costar), a solution (15 μL) of 2% o-phthalaldehyde (manufactured by SIGMA) in methanol and 0.3M NaOH solution (170 μL) were added to each well, and the mixture was incubated at room temperature for 10 min. Then, 3M HCl solution (25 μL) was added to quench the reaction. The plate was set on a microplate reader SpectraMax190 (manufactured by Molecular device) and the fluorescence intensity was measured at an excitation wavelength of 355 nm and a fluorescence wavelength of 460 nm.
(§3) All nucleic acids of SEQ ID NO: 17(1)-17(25) were prepared by chemical synthesis. In the evaluation of SEQ ID NO: 17(1)-17(25), a method similar to the evaluation method of inhibitory activity against chymase shown in Example 1 by using angiotensin I as a substrate was used for measurement. In the Table, the IC₅₀ value is a mean of 2 or 3 measurements.
For B1, the IC50 was 0.18 nM.
With B2 the IC50 was 0.19 nM.
For B3, the IC50 was 0.19 nM.
Work on B4 yielded an IC50 of 0.16 nM.
Binder B5 has an IC50 of 0.18 nM.
B6 showed an IC50 of 0.14 nM.
Binder B7 has an IC50 of 0.14 nM.
With B8 the IC50 was 0.13 nM.
B9 showed an IC50 of 0.19 nM.
For B10, the IC50 was 0.15 nM.
In the case of B11, the IC50 is reported as 0.17 nM.
B12 gave an IC50 of 0.16 nM.
B13 showed an IC50 of 0.21 nM.
With B14 the IC50 was 0.13 nM.
B15 gave an IC50 of 0.19 nM.
B16 showed an IC50 of 0.17 nM.
With B17 the IC50 was 0.16 nM.
With B18 the IC50 was 0.13 nM.
B19 was tested, and the IC50 was 0.2 nM.
Work on B20 yielded an IC50 of 0.19 nM.

Molecular target: T1, chymase (native, human skin mast cell)
Assay: inhibition; angiotensin I substrate
Conditions: tags: Calbiochem Human Skin
Remark: another data set of the same source
Description: as §1, §2
as §3, with “The” for “All”, “11-20” for “17(1)-17(25)”, “all produced” for “prepared”, “11-20,” for “17(1)-17(25),”, “[…] The” for “In the Table, the”
GAUGAUCGGACAUAACAUUGUUGGGGUGUCAAGCC (ssRNA, 2'-F pyrimidines (U, C); purines 2'-OH) [SEQ ID NO: 15] was tested, and the IC50 was 1.4 nM.
Binder UGAUCGGACAUAACAUUGUUGGGGUGUCAA (ssRNA, 2'-F pyrimidines (U, C); purines 2'-OH) [SEQ ID NO: 18] has an IC50 of 2.1 nM.
